# In paper PMC5592240, “Succinyl-CoA:Mesaconate CoA-Transferase and Mesaconyl-CoA Hydratase, Enzymes of the Methylaspartate Cycle in Haloarcula hispanica” (Frontiers in Microbiology, 2017):
# B1: succinyl-CoA:mesaconate CoA-transferase from Haloarcula hispanica (enzyme, UniProt G0HQ31 1-396, looked up)
# chain: MGALDDLRVLDLTQVLAGPYCTMLLADMGADVVKVERPGGDLIRSNPPFVSDGDEEAYGGYFQSVNRGKRSLELDLGTDEDREAFLSLVERADVVVENFKAGTMEKFDCGYETLREHNPDLIYSSIRGFGDPRTGETHRQGQPSFDLIAQALGGVMEITGQSDGPPTKVGPGVGDLFTAVLNAVGILAAVHHRERTGEGQYVDTAMYDSMVSLCERTVYQYSCDGESPTRQGNSHPTLFPYDSFEAADGHVVIAAFADGHWETLCEAMERPDLAADYPDAGSRIANRESLRREIADWTATIDSETLLDLLEGRVPAAPVQNTADIFDDPHIHDREMLTDVDQPGADEQITIAGSPIKMTETMPSPGGRAPLLDEHRAELLDEAGVGTGTNRVESDD
# notes: succinyl-CoA:mesaconate CoA-transferase (Mct, Hah_1336) of Haloarcula hispanica; the 1.19-kb mct gene (396 amino acids, predicted molecular mass 43 kDa) was cloned into pTA963; No removal of the tag is described; also called Mct; Hah_1336; source: Haloferax volcanii H1209 (pTA963), purified (Ni-NTA, gel filtration); not shown: His6, N-terminal, kept
# B2: mesaconyl-CoA hydratase from Haloarcula hispanica (enzyme, UniProt G0HQ35 1-358, looked up)
# chain: MTDWTDPDALDLSDGETFDSLLDRADTREKGHFFEFFAEGDELAHDPGLRLSHHGSEQWMGQTLNHDPAYWRADTAQERGFEERPVHPDYLLACVMGITVEDLSEKGGYFLGRDDVEFHQPATAGTPLSVTSTVVDTRTSSSRPKYGIVTWETEGRDRETGETLVSYRRTNMIPRREPAATDGGAVGEQDEGGPAMPDTLLSPDGERFGDFQAALDTAREENAAVAYRHERGRTMDDQLVAGLPLSTLNTARQHHNRDEMADSPSGDIVAYGDVTRSIALAHARSDEATYREQRFADERFHDFVTLGDTVYGFTRVLDCDPDAGPERAGAVTFEHVAFNQEQTPVYSGRRTAHIQRHQ
# notes: mesaconyl-CoA hydratase (Mch, Hah_1340) of Haloarcula hispanica; the 1.07-kb mch gene (358 amino acids, predicted molecular mass 40 kDa) was cloned into pTA963; No removal of the tag is described; also called Mch; Hah_1340; source: Haloferax volcanii H1209 (pTA963), purified (Ni-NTA, gel filtration); not shown: His6, N-terminal, kept
# Tests used:
# [1] = biological target: the molecule itself; assay: SEC; analytical gel filtration, 24-ml Superdex 200 Increase 10/300 GL, 50 mM Tris/HCl pH 8.0 with 2 M KCl, 0.75 ml/min; calibrated with alcohol dehydrogenase (150 kDa), bovine serum albumin (66 kDa), carbonic anhydrase (29 kDa), cytochrome c (12.4 kDa); native mass against the monomer's mass
# [2] = substrate: C/C(=C\C(=O)O)C(=O)O; assay: UPLC of mesaconyl-CoA formation; type: biochemical, Haloarcula hispanica; conditions: CoA acceptor, 1 mM succinyl-CoA, 100 mM Tris/HCl pH 7.8, 3 M KCl, 5 mM MgCl2, 37°C, apparent
# From the text: (§1) UPLC of mesaconyl-CoA formation on succinyl-CoA:mesaconate CoA-transferase (Mct, Hah_1336)
# [3] = substrate: CC(C)(COP(=O)(O)OP(=O)(O)OC[C@H]1O[C@@H](n2cnc3c(N)ncnc32)[C@H](O)[C@@H]1OP(=O)(O)O)[C@@H](O)C(=O)NCCC(=O)NCCSC(=O)CCC(=O)O; assay: UPLC of mesaconyl-CoA formation; type: biochemical, Haloarcula hispanica; conditions: CoA donor, 10 mM mesaconate, 100 mM Tris/HCl pH 7.8, 3 M KCl, 5 mM MgCl2, 37°C, apparent
# From the text: as §1
# [4] = substrate: O=C(O)CCCC(=O)O; assay: UPLC of CoA-ester formation; type: biochemical, Haloarcula hispanica; conditions: CoA acceptor, 1 mM succinyl-CoA, 100 mM Tris/HCl pH 7.8, 3 M KCl, 5 mM MgCl2, 37°C, apparent
# From the text: (§2) UPLC of CoA-ester formation on succinyl-CoA:mesaconate CoA-transferase (Mct, Hah_1336)
# [5] = substrate: CC(CC(=O)O)C(=O)O; assay: UPLC of CoA-ester formation; type: biochemical, Haloarcula hispanica; conditions: CoA acceptor, 1 mM succinyl-CoA, 100 mM Tris/HCl pH 7.8, 3 M KCl, 5 mM MgCl2, 37°C, apparent
# From the text: as §2
# [6] = substrate: C=CC(=O)O; assay: UPLC of CoA-ester formation; type: biochemical, Haloarcula hispanica; conditions: CoA acceptor, 1 mM succinyl-CoA, 100 mM Tris/HCl pH 7.8, 3 M KCl, 5 mM MgCl2, 37°C, apparent
# From the text: as §2
# [7] = substrate: C[C@H](C(=O)SCCNC(=O)CCNC(=O)[C@H](O)C(C)(C)COP(=O)(O)OP(=O)(O)OC[C@H]1O[C@@H](n2cnc3c(N)ncnc32)[C@H](O)[C@@H]1OP(=O)(O)O)[C@@H](O)C(=O)O; assay: UPLC of CoA esters (dehydration to mesaconyl-C1-CoA); type: biochemical, Haloarcula hispanica; conditions: 100 mM Tris/HCl pH 7.8, 3 M KCl, 5 mM MgCl2, 37°C, reverse direction (dehydration), apparent
# From the text: UPLC of CoA esters (dehydration to mesaconyl-C1-CoA) on mesaconyl-CoA hydratase (Mch, Hah_1340)
# [8] = substrate: C/C(=C\C(=O)O)C(=O)SCCNC(=O)CCNC(=O)[C@H](O)C(C)(C)COP(=O)(O)OP(=O)(O)OC[C@H]1O[C@@H](n2cnc3c(N)ncnc32)[C@H](O)[C@@H]1OP(=O)(O)O; assay: UPLC of CoA esters (hydration to beta-methylmalyl-CoA); type: biochemical, Haloarcula hispanica; conditions: 100 mM Tris/HCl pH 7.8, 3 M KCl, 5 mM MgCl2, 37°C, forward direction (hydration), apparent
# From the text: UPLC of CoA esters (hydration to beta-methylmalyl-CoA) on mesaconyl-CoA hydratase (Mch, Hah_1340)
# [9] = substrate: CC(C)(COP(=O)(O)OP(=O)(O)OC[C@H]1O[C@@H](n2cnc3c(N)ncnc32)[C@H](O)[C@@H]1OP(=O)(O)O)[C@@H](O)C(=O)NCCC(=O)NCCSC(=O)C[C@](C)(O)C(=O)O; assay: UPLC of CoA esters (dehydration); type: biochemical, Haloarcula hispanica; conditions: 100 mM Tris/HCl pH 7.8, 3 M KCl, 5 mM MgCl2, 37°C, apparent
# From the text: (§3) UPLC of CoA esters (dehydration) on mesaconyl-CoA hydratase (Mch, Hah_1340)
# [10] = substrate: CC(C)(COP(=O)(O)OP(=O)(O)OC[C@H]1O[C@@H](n2cnc3c(N)ncnc32)[C@H](O)[C@@H]1OP(=O)(O)O)[C@@H](O)C(=O)NCCC(=O)NCCSC(=O)C[C@H](O)C(=O)O; assay: UPLC of CoA esters (dehydration); type: biochemical, Haloarcula hispanica; conditions: 100 mM Tris/HCl pH 7.8, 3 M KCl, 5 mM MgCl2, 37°C, apparent
# From the text: as §3
# [11] = substrate: C/C(=C\C(=O)SCCNC(=O)CCNC(=O)[C@H](O)C(C)(C)COP(=O)(O)OP(=O)(O)OC[C@H]1O[C@@H](n2cnc3c(N)ncnc32)[C@H](O)[C@@H]1OP(=O)(O)O)C(=O)O; assay: UPLC of CoA esters (hydration to (S)-citramalyl-CoA); type: biochemical, Haloarcula hispanica; conditions: 100 mM Tris/HCl pH 7.8, 3 M KCl, 5 mM MgCl2, 37°C, forward direction (hydration), apparent
# From the text: UPLC of CoA esters (hydration to (S)-citramalyl-CoA) on mesaconyl-CoA hydratase (Mch, Hah_1340)
protein,measurement,setting,value
B1,stoichiometry N,[1],2
same,Km,[2],1300 ± 200 µM
same,Vmax,[2],17 µmol/min/mg
same,kcat,[2],12.2 s⁻¹
same,kcat/Km,[2],9800 M⁻¹ s⁻¹
same,Km,[3],2800 ± 200 µM
same,Vmax,[3],69.2 µmol/min/mg
same,kcat/Km,[3],17800 M⁻¹ s⁻¹
same,Km,[4],40900 ± 3900 µM
same,Vmax,[4],18.1 µmol/min/mg
same,kcat/Km,[4],320 M⁻¹ s⁻¹
same,Km,[5],600 ± 100 µM
same,Vmax,[5],11 µmol/min/mg
same,kcat/Km,[5],12400 M⁻¹ s⁻¹
same,Km,[6],39300 ± 4600 µM
same,Vmax,[6],6.2 µmol/min/mg
same,kcat/Km,[6],120 M⁻¹ s⁻¹
B2,stoichiometry N,[1],2
same,Km,[7],350 ± 50 µM
same,Vmax,[7],266 µmol/min/mg
same,kcat/Km,[7],254000 M⁻¹ s⁻¹
same,Km,[8],1000 ± 100 µM
same,Vmax,[8],20.7 µmol/min/mg
same,kcat/Km,[8],6900 M⁻¹ s⁻¹
same,Km,[9],2600 ± 300 µM
same,Vmax,[9],1.6 µmol/min/mg
same,kcat/Km,[9],200 M⁻¹ s⁻¹
same,Km,[10],320 ± 50 µM
same,Vmax,[10],3.6 µmol/min/mg
same,kcat/Km,[10],3800 M⁻¹ s⁻¹
same,Km,[11],180 ± 10 µM
same,Vmax,[11],1.12 µmol/min/mg
same,kcat/Km,[11],2000 M⁻¹ s⁻¹
